This series in a line: label from the status in PepcDB records.
Consider “MVSIDTLIFQALNSSKFHPLYSPSINSINLQDDWAEKEGKEELSSILLLHRKASPPPPISALPNRNHKLQPLNLLFIDFPGQSFQQRERFRQFTASVRVYYVNDRKLNVQEGALIFFVRGVRYSLPLRELCDIYGFDNDLIGVALPGQFKDAQIFWSRFSNGIYDSKDAVHSEIRHLVLRYLVRLISSTLFCKMEPGKMRLSELLVLYHVVHDFFPDSLRFEEVDRDVNVGAVFAHHLVSLKTKPFTGRGKKLERVGSLLTPIFEHFRISFEGEELPCTALTKITSEHEELSFCPDPSLMHAAPRTRRHRGLASRSAPTQTEDEFIDPAEGLRVGSSSSALPYQLPSPPPIPMEPHVFQQYVVDSFKSVWNAIATLSR”, for which the protein production entry is given as “failed”.

With “MVSIIIPIYNVQDYINDCLYSVYTQTYSEIEVILVNDCTPDNSMLIAHSNIEKLKKRFNVKIIDHKSNKGLSAARNSGVKEATGEWVYFLDSDDEITPDCIECFVRLAERYLSVDFIVGGIRVIGRNISYRLTTSEYVIGNDNILKCYISGMWYEMAWNKLIRKEYFVSNNLWFKEGLLHEDQLFSYQLATTALTMATVNKPTYIYKMRMSGAITSSNGRKNFDSFICILEYMVYSVMQKYSTSSVTLEYAQIIRFSYSILLSLYGKHNLTEMEVVNYELKVDRICRIVTFYKCKLPVPIQIKLTIIKLPQTMRKVLLKWHNKKIQKKLEHHHHHH”, the protein production entry is recorded as “not failed”.

Take “MVSPKKLTPAMEQVKTFKEKYPDCILFMRMGDFYETFFEDAEICARELDIVQTSRSKDPEGNPIPLAGIPYHAVDLYLPRMIRKGYKVAVCEQVEDPKLAKGVVKRDVVRVVTPGTAIDADVIPGPTARYLMALCSDAKKTVMGLAFLDISTGEFFVREIPFEPGFSALATEIEQYNPLEILVPQGISADLISFLASTCKVLTPGRSGLFVDGTAELTAAFCVSSLDGFDVSSAECINAAAAALRYAKETQKTSLPHIRGFSRKYANDAMILDAITLRNLEILNPLRGDRNDTTLFGFLNRTKTPMGSRVLRSTITRPLTSPEKINHRLDAVGFFTRRPVLLSGTRTILSRFTDIERIAGRIAYGNASPRDLLALASSLAAVPELTAELCGAEGLLKDELEQIPSFDGVADLILSAIVDEPPLVYKNGGVIREGYSSDLDQIRNIVTNGRDWIAELQQTERERTGIRSLKIAYNNVFGYYIEITKANLHLVPDTYERKQTTANGERFTIPALREREAVMAQADDRVLALEISLFESLLTHLSEFVPALQQASRSIGTIDMIAAFADLSLSGNYVRPELVPGTELLIRDGRHPIVENTVPGGYVPNDTEMSSIGQQILILTGANMAGKSTYMRSVALICIMAQTGCFVPASFARIGIVDRVFTRVGASDDLAGGQSTFMVEMLELANILNNATDQSLILLDEIGRGTSTVDGYAIARAVLEYLHGKGGAGPRTLFATHFHQLIGMESELRRVRNYHFAVKEDQHDITFLRKLIPGATDRSYGIHVAKIAGVPKKVLVRASDLLREALTQDASSGGTKYYTQMLLTDAEPAPSAVEERIRDADPNMMTPMQALMFINELKALLEKK”: the protein production result is listed as “failed”.

Consider “MVSRLVLGCGTVGHAVIGSLADRRGELFVFDGDESRVDSLRNESVAAEVRDVTDPAAITLPDRSVDMVVVAGERADRNRLAAIAADAAHPDAGLVVYLGFDATPKDRHRIDSVADRVVDPGAELLSHANSLTESGASQRLQALRQTLQGIDGRLGVFMHDNPDPDAIAAAVGLQRIAEDAGVDSQACYFGEISHQENRAFVNLLEFDLRNVETQSDAEFDAVALVDHSGPGVNDQLAPDTDVDIVIDHHPPTTDVDAGFTDIRPDTGATSTILVEYLRGYGIDVRTAVATALLYGIRVDTDDFAREITPRDFTAAAWLLPNADTDVLERIEAPSLSADTFDTIAAGIRNRQLNGSVLASCVGQITARDTLAQTADRLLAMRGVAVTFVYGYFDGTIYVSARSRRKDLDLGAVLRSAFDDLGSAGGHADMAGAQLPLGLFDAVGEDAATTLTEMIEEVVASRFFEEVHGGTSGIQQGE”, for which the protein production entry was “failed”.

For “MVSSLFINPFSEDAREIVRKYGSLDTIDDTRDELLEIGRRTRGQNLADNSLLPASIAELAVKRLEWYLRRQRKDFNHRDYAYLMNPEIEEYDVLAFYILAQAAGAGFMKASREARLVVESAGAMVEDRLNVFGGEREEIMAEVLYELGSEGLRWTELADLLGSGKLKLTDLILKEGRVIIDRDEFITSFQDSIRDRSPDRLYDILVGLEVRETMISRMIMQRTEEYIGMVREMSSTVEVHPLILETAERIRETVEEIMSFTGGPVKSARPGKLVQEAFPPCIRGTLDGVRSGNRNDAIVLLLTSFISYARLYPSVFRDRTPMKVSDLDPDLRITLGEILPVIYDAADRCEPPLFEDDPQEKLNITAKLGFGVHDMPELENEGESKWYTPMSCEKIKIHLPDLCRPDKLCSSISNPLTYYNRKRWKLRSSGEKEELEHHHHHH”, the protein production entry is recorded as “not failed”.

For the origin of these results see a protein production outcome set (Wang et al. 2014).
